From patent US6001988

Assays:
[1] = target: T1, L-selectin (LS-Rg) (Homo sapiens) (UniProt P14151); assay: filter
T1 sequence: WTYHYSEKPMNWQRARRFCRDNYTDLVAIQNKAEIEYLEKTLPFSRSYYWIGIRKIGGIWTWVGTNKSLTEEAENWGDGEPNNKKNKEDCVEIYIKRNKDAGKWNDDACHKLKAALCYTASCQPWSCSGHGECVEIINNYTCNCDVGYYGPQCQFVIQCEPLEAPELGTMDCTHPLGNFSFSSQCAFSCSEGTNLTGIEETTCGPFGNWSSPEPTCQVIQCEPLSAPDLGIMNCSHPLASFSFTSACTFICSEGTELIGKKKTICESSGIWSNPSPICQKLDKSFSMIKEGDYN

[2] = target: T2, wheat germ agglutinin (WGA) (Triticum vulgare) (UniProt P10968); assay: filter
T2 sequence: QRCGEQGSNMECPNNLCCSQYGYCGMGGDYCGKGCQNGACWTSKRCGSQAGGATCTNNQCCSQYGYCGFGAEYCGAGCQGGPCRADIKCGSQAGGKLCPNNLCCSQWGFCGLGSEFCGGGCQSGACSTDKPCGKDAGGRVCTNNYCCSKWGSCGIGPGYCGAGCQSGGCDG

[3] = target: CD22beta (CD22beta-Rg) (UniProt P20273); assay: filter
Sequence of CD22beta (CD22beta-Rg) (P20273 20-687): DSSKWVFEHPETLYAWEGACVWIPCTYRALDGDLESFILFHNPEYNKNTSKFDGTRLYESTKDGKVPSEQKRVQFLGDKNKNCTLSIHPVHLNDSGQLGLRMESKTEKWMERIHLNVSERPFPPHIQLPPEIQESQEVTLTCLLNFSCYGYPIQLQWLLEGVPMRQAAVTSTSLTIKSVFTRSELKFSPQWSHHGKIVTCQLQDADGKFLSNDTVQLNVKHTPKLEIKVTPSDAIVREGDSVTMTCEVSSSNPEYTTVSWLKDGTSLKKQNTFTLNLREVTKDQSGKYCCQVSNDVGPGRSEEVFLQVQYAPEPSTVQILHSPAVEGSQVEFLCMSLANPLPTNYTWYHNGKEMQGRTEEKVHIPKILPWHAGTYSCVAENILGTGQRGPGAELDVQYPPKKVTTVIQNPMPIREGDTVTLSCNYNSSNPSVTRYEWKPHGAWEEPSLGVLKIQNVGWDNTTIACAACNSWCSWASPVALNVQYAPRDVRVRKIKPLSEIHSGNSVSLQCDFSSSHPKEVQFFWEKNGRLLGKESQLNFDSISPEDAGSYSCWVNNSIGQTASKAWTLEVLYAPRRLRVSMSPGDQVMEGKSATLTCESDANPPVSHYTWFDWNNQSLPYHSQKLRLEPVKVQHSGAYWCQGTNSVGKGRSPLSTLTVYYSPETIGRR

[4] = target: T3, E-selectin (ES-Rg) (Homo sapiens) (UniProt P16581); assay: filter
T3 sequence: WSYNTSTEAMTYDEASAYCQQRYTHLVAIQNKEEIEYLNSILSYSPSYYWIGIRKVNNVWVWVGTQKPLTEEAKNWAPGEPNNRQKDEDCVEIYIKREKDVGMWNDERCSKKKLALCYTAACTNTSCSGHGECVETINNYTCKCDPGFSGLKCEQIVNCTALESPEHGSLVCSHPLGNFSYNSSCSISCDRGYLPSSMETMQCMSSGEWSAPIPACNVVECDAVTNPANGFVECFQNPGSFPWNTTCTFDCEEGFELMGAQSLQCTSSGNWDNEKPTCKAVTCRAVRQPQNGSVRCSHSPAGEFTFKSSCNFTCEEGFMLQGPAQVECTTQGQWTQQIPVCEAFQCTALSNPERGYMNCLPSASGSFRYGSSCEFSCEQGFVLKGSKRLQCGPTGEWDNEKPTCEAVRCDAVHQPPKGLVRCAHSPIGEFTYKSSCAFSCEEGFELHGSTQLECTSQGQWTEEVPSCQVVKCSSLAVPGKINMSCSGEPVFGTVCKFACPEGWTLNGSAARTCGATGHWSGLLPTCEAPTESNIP

[5] = target: T4, P-selectin (PS-Rg) (Homo sapiens) (UniProt P16109); assay: filter
T4 sequence: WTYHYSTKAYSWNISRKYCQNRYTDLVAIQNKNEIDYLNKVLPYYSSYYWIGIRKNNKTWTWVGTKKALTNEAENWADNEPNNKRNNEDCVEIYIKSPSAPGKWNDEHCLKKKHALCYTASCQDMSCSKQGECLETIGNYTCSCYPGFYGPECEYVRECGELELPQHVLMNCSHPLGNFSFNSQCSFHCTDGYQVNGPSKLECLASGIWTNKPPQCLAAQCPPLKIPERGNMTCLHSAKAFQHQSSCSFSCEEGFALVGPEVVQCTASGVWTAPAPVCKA

[6] = tested on: Datura stramonium lectin (Datura stramonium); assay: filter; details: 2'-NH2 all C and U
[7] = target: T1, L-selectin (LS-Rg) (Homo sapiens); assay: inhibition; details: 2'-NH2 all C and U; inhibits LS-Rg binding to immobilized sialyl-Lewis X, room temp, Ca/Mg
[8] = target: T5, L-selectin on PBMC (Homo sapiens) (UniProt P14151); details: 2'-NH2 all C and U; PBMC binding on ice; competed by DREG-56 anti-L-selectin antibody
T5 sequence: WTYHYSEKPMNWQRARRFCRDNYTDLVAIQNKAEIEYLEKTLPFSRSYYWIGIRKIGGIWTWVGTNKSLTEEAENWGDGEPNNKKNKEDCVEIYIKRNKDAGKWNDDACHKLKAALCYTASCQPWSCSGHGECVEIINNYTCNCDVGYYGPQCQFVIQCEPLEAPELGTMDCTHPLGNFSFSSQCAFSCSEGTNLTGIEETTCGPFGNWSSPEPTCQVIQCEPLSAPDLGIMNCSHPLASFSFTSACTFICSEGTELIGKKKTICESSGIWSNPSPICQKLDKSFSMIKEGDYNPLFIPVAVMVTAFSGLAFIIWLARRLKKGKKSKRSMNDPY

[9] = 2'-NH2 all C and U, HBSS, room temp
[10] = 2'-NH2 on all C and U, <5% binding at highest protein, 4 C, HSMC

Sequence: CTACCTACGATCTGACTAGCCGAGGATCTGATACTTATTGAACATAMCCGCACNCAGGCTTGCTTACTCTCATGTAGTTCC [102]
- Kd ([1]; 37 C, room temp not determined): 7.9 nM

Sequence: CTACCTACGATCTGACTAGCCGAGGTAGTCGTTATAGGGTRCRCACGACACAAARCRGTRGCTTACTCTCATGTAGTTCC [127]
- Kd ([2]; <3% binding at 1.4 µM, room temp): > 100 µM
- Kd ([3]; <1% binding at 700 nM, room temp): > 100 µM
- Kd ([4]; room temp, Ca/Mg buffer): 1.3 µM
- Kd ([5]; room temp, Ca/Mg buffer): 0.78 µM
- Kd ([1]; room temp, 890 pM at 37 C): 1 nM

Sequence: CTACCTACGATCTGACTAGCNNNNNNNNNNNNNNNNNNNNNNNNNNNNNNNNNNNNNNNNGCTTACTCTCATGTAGTTCC [random 40BH ssDNA pool]
- Kd ([1]; estimate for random ssDNA): 10000 nM

Sequence: GGGAAAAGCGAAUCAUACACAAGAAAGGGAUGGGAUUGGGACGAGCGGCCAAGACUCGGCGGGAACGAAGGGUCCGCUCCGCCAGAGACCAACCGAGAA [6.8]
- Kd ([6]; <5% bound at 1 uM protein): > 20 µM

Sequence: GGGAAAAGCGAAUCAUACACAAGACAGCGGCGGAGUCAGUGAAAGCGUGGGGGGYGCGGGAGGUCUACCCUGACGCUCCGCCAGAGACCAACCGAGAA [6.14]
- Kd ([2]; 2'-NH2 all C and U, <5% bound at 1 uM WGA): > 20 µM

Sequence: GGGAAAAGCGAAUCAUACACAAGACGGCUGUGUGGUGUUGGAGCGUCAUAGUAGGAGUCGUCACGAACCAAGGCGCUCCGCCAGAGACCAACCGAGAA [11.24]
- Kd ([6]; <5% bound at 1 uM protein): > 20 µM

Sequence: GGGAAAAGCGAAUCAUACACAAGACUGGCAAGRAGUGCGUGAGGGUACGUUAGGGGUGUUUGGGCCGAUCGCAUGCUCCGCCAGAGACCAACCGAGAA [11.7]
- Kd [2, 9]: 0.016 µM

Sequence: GGGAAAAGCGAAUCAUACACAAGAGAGGUGRAUGGGAGAGUGGAGCCCGGGUGACUCGAGGAUUCCCGUGCUCCGCCAGAGACCAACCGAGAA [11.3]
- Kd [2, 9]: 0.41 µM

Sequence: GGGAAAAGCGAAUCAUACACAAGAGUAGGAGGUUCCAUCACCAGGACUCGGCGGGAACGGAAGGUGAUGSGCUCCGCCAGAGACCAACCGAGAA [11.35]
- Kd [2, 9]: 0.09 µM

Sequence: GGGAAAAGCGAAUCAUACACAAGANNNNNNNNNNNNNNNNNNNNNNNNNNNNNNNNNNNNNNNNNNNNNNNNNNGCUCCGCCAGAGACCAACCGAGAA [random 50N9 RNA pool]
- Kd ([2]; 2'-NH2 all C and U, no binding at 36 uM WGA monomer): > 4000 µM

Sequence: GGGAAAAGCGAAUCAUACACAAGAUUGGUCGUACUGGACAGAGCCGUGGUAGAGGGAUUGGGACAAAGUGUCAGCUCCGCCAGAGACCAACCGAGAA [11.20]
- Kd ([6]; HBSS, room temp): 11.2 µM

Sequence: GGGAGGACGAUGCGGAAGUGAAGCUAAAGCGGAGGGCCAUUCAGUUUCNCACCACAGACGACUCGCCCGA [F14.2]
- Kd [3, 10]: > 20 µM
- Kd ([4]; 2'-NH2 all C and U, 4 C, HSMC): 1.9 µM
- Kd ([5]; 2'-NH2 all C and U, 4 C, HSMC): 0.45 µM
- Kd ([1]; 2'-NH2 all C and U, 4 C, HSMC, 7.2 nM at room temp): 1.8 nM

Sequence: GGGAGGACGAUGCGGAAGUGAAGCUAAAGSGGAGGGCCACUCAGAAACGCACCACAGACGACUCGCCCGA [F14.13]
- Kd ([1]; 2'-NH2 all C and U, 4 C, HSMC, biphasic, fraction 0.74, low affinity Kd 270 nM): 1.3 nM

Sequence: GGGAGGACGAUGCGGCCGUACAUGGUAARCCUCGAAGGAUUCCCGGGAUGAUCCCCAGACGACUCGCCCGA [F14.27]
- Kd ([1]; 2'-NH2 all C and U, 4 C, HSMC): 145 nM

Sequence: GGGAGGACGAUGCGGNNNNNNNNNNNNNNNNNNNNNNNNNNNNNNNNNNNNNNNNCAGACGACUCGCCCGA [random 40N7 RNA pool]
- Kd ([1]; 2'-NH2 all C and U, estimate for random RNA): 10000 nM

Sequence: GGGAGGACGAUGCGGUAACAACAAUCAAGGCGGGUUYACCGCCCCAGUAUGAGUACAGACGACUCGCCCGA [F14.12]
- IC50 [7]: 0.01 µM
- Kd ([3]; 2'-NH2 all C and U, <5% bound at up to 660 nM, 4 C): > 20 µM
- Kd ([4]; 2'-NH2 all C and U, 4 C, HSMC): 0.047 µM
- Kd ([5]; 2'-NH2 all C and U, 4 C, HSMC): 0.91 µM
- Kd ([1]; 2'-NH2 all C and U, 4 C, HSMC, Table IX prints 5.8 pM (fraction 0.68, low affinity Kd 16.2 nM), 1.7 nM at room temp): 0.06 nM
- Kd [8]: 0.0013 µM

Sequence: GGGAGGACGAUGCGGUCCAGAGCGUGAAGAUCAACGUCCCGGNGUCGAAGACAGACGACUCGCCCGA [F14.70]
- Kd [3, 10]: > 20 µM
- Kd ([4]; 2'-NH2 all C and U, 4 C, HSMC): 5.9 µM
- Kd ([1]; 2'-NH2 all C and U, 4 C, HSMC, biphasic, fraction 0.75, low affinity Kd 254 nM, 7.8 nM at room temp): 2 nM
